This note sets out measurements from the DeepSol protein solubility set.

This data set in a line: soluble on expression in E. coli; label from the status in PepcDB or PDB records.
“MSLKELYLIDALNIIFRNYHVMKNYPLLNTQGENVNAFIGFFKTLFFIIKEKNPEHLIITFDSEVPTFRKQKYPSYKATRDLPPDDLIPQIGWIKEGLLKAKIPIFEMEGYEADDLLASFAKKAAKNNYLTYIISPDKDLLQTMSEYVKILKIENNSFIEMDNEYVTKKFGVNSFQIKDYLAIVGDRSDNIPGIKGIGAKGAANLLREFKTLDGIYSNLEIINKKHRELLIKEKENAFLSYELVSLEENLKIPEIENFALKNFSEEIISLFEKHSAIALIKTYKKDILKQEKENADQKSLFKQEPTTNSLDDINTIDTENVKYRSITTKIELDDLIESLKKAKYISIDTETSSLDTYTAKLIGISISFKEFEGYYIPIEAKGKIYIEKNYIIQKFNNLFESNPKIIGQNYKFDYKILKNNGFNPIPPYFDTMIAAYLIDTNSKVSLDFLAEKYLMHKNIKYEDVIQKNDNFANISLEMATSYSSEDADITFRLFNIFTKKLKEDKLDKLMHEIEMPFNKVIIEMEEGHHHHHH”: the “soluble on expression in E. coli” value was “not soluble”. As for “MSLKEVDLTQEQMKDLNLTYDWYRSYDNAKLNEFLNFVLLNNSDINIARKTLLSALARADLIDYDLYPTLSGNLGFGADKDLNSGKQSKNFNNSLNLSYELDIYGKLRDSASASEFSAKASAYDLENLKISMINTALNDVFELAYFNDVDKLLRAYLSNLEQMKELYNYKYKLGKIEELDLLNIEQSLLRAKQNLLSNDQNRNLLIKNLQDLLARQEGFAYIEYFKTLSLNDFKTLSPDFNIPLKALAYRADVRSKLNSLKSAFKDYSSMQKSILPSISLGGALSGSDKKIDDSFKFEILSGNVKISLPFLDYGRVKQNIKISQFAYEQLLISYEQVLQSAMNEFALNYKDYQSDTLLLQNLQNINIKQELITKAYYEKYILGKSELKDYLDANNTLNSTQQEFLRARFNLLKTINSYYQITALSFNNENLEFPKEGHHHHHH”, the entry is “soluble”; as for “MSLKFHSPSCFLSAGEPSGDTLGSDLLRNIKELNPNIHCFGVGGPLMRKEGLEPLIRMEEFQVSGFLEVFCAVFSLYKKYRKLYKAILKENPETVFCIDFPDFHFFLIRKLRKCGYRGKIIHYVCPSIWAWRPNRKKILEKHLDTLLLILPFEKEIFKDSPLKTIYLGHPLVKTIANFQDCNAWKQQLEISDQPSVALFPGSRPGDIFRNLQVQARAFRSSSLAKSHQLLVSSCNPKYDKKILELLDKEGCHNNKIVPSKFRYQLMRDCDCALAKCGTIVLEAALNQTPTIVTCLLRPFDTFLAKYIFKIFIPAYSLPNIITGSVIFPEFIGGKHDFSPEEVAAAIDILANPIGKEKQKYACQQLLKTMTENVITPKECLQAIYAQKNREGHHHHHH”, “not soluble”. For the sequence “MSLKIFDAHCDVLLQLWSAQGRKDFKHDSQLHITFEQLKRRKGSIQCFAIYVPETVAYENRFEVALQMVDIFYNEILSLPGVKFIQTKDDINMLKQDEIGAILTLEGCEAIGKDAMKIRLLYRLGVRSFGLTWNYANLLADGALETRGAGLTTSGKHVVQELNALHVWTDVSHLNERSFWDVIEIAKNPIASHSNCMKLCQHPRNLNDEQLKALIKRNGMIGVTFVPQFLTNEKQANVADIIRHIEYICSLGGENNIGFGSDFDGILETVVNVSAYRDYENVVNELCKHYAASTVERFLYDNFVEHISEGHHHHHH”, the “soluble on expression in E. coli” value was “not soluble”. As for “MSLKIHTLRLILGDQLNARHSWFREKDAGVLYVMMELKQETDYVVHHRQKVLAFFAAMRAFGNALNTSGHQVNYIKLDDDTNEQSLTQNLQQLMKKYEVTTLECQQPDEYRLDHQLKSWAGANNIHLSWFDTEHFLTGRNSLKEYFPNSENYLMETFYRRVRKQYDILMDGGRPTGGRWNYDKENQKKVPASHDVELPLIFSNDVSDIDELLRSSEIKTMGQANAAQLIWEGHHHHHH”, the entry is “not soluble”. As for “MSLKIIPGATGYFNKTLNSNQFDNEDAIKGKVNSIYGKSIDYSTMRHRDIIIAKIDLFIQRITHNLWTAREKNVTLIKQINDLKMCVNEYIGDCTDEELNDREFIASVVDRAIFHFAINSICNPEDNKDATLIERCTFDVETKNGLPSTVQLFYEESKDNEPLANIHLQAIGSGFLTFVNACQEHDDNSLKLFASLLISLSYSSVYSDFAGRVNINEYNDNYLKAQFEELSQRDMKKYLGEMKRLADGGEMNFDGYLDKMSHLVNEGTLAPDILSKMRDAAPKLIDFAKSFDPNSKEKIKIYTGTSKLIYDLFGVKSEKEGHHHHHH”, the “soluble on expression in E. coli” value is listed as “soluble”. As for “MSLKILIPTAKEMNTDLPSIEAIPLKPESQTVLDALALYSASQLESFYKVSAEKAAEEFQNIQALKRQTAQHYPALKLFDGLMYRNIKRDKLTEAEQDYLENHVFITSALYGVVPALSPMAPHRLDFLMKLKVAGKTLKSHWKAVYDEALKKEEVIFSLLSSEFETVFSKEIRAKMVTFKFMEDRGGQLKIHSTISKKARGAFLTALIENQVQTVGEARRLNFAGFVYREDLSQPQGLVFVKEVEGHHHHHH”, the entry is “soluble”; as for “MSLKITELSRDLTTGLTTATTSIADYFFGNTHHSHHVFYLNLTVLKAKRAAKVENKKFIDLKLIKLTSGNGGNGCVSFFKDNFKPMGPPDGGDGGNGGSIYLNVVDKNITSLHGLQKRYVAKGGQPGKGSQLDGKSGDDIIIDIPLGTIVRWIPDPQDFKKFVSQREGDALNDVFMEFDIDDRDFIQLNRGGYRPGEGWIFKEHDEEYFRDKDFFQDLNEKVTGYDEELLFEESYNDRFPIVGLDCNQVTQKPLLLLRGGKGGLGNMHFLTKEIKGPRFCKMGRPGITANFLLELKLIADLGLVGLPNAGKSSLLRAISKARPRVGHWEFTTLQPTVGTIFTRIDKDPFTVADIPGIIKGASQNKGMGLDFLRHIERSGGLVFVVSLESANPVDDLKILLEEVGPRRMKDKNVLVVATKADLSSEGANFKVLRDYIEHNHSEWKIVPVCAPKGENVERCIKLMSEIAQTKKKEGHHHHHH”, “soluble”; as for “MSLKITNEMQTKAETKIHRTTKVGDPSFQQMVQSQTKQLNQQQFHQLVQQISKQGSKLAQYRSFRELVKFKRMVKSFLDKAVVQGYKLEKSHSFGLQGSRHLSIVKAVDEKLIQLAEDIMDEEKKTVDILGLIGEIKGLLINIYTEGHHHHHH”, “soluble”. As for “MSLKITQIQAQNKNKNRRNVFVDGSYEFSCDMEIILKYKLKEGLEIDRTKLLQVIDQSKEEFAFRLALNYLSFKSRTSFEIYTYLLKKEYEEKIIEKVIEKLKYYRYVDDNQYVLNYIKTALAEGKKGKDRVQSDLINKKIPQDMIESHMHLFSCETNLEIAKELSNKYFKQNAHLPFNQFKNKLSQFLMRKGFNWEIINTCLNILEQDSEVQSHIDSNKELYVKEAIKLGNKYFVKYKAKETNPYLVEHKVKSHLYQKGYDKDTINLAFKKIIENSEGHHHHHH”, the entry is “not soluble”; as for “MSLKKFLKMFFPHDGIYEVLVGTSGIKPIIKPLGIIVEANELRSKIYKSTLTYSNLEKNNKCSIHVTLDTTFFILSMLDKLTFSIDSDYNVPVLKNLNVIYAECMKTSSTDPSIFTINPLDLEINSNLTRAYNRGDYISVDFLVNYTRLDIYKGEDLEKLVRILEYEWSVIKRTSQYTSSLLEEILNKMRSKGFKLDEGHHHHHH”, “not soluble”; as for “MSLKKIKRITAYQVDLPLHEGSYNWSGGKTVNIFDSTIVAIETDDGLIGYGECCPLGPFYLPSYAEGVRAGIKELGPHLIGLDATDHSYINMVMDQCLKGHPYVKSPIDIACWDIKGKAANMPISKLLGGTYDEDFVLYRAISQNEPDAMASNVKKYRDEGYRRFQLKVGGSPNEDIERIRSVASKLEDGDKLIADANTGWLAHEALRVIRAVNDIDVYIEQPCQSYEECLSVRQKTTHPFILDESVKNIGVLVRGYHDKAMDAVNIKISKFGGITKAVLARDLCTELGIAMTIEDSWGGDIVTATIAHLAHSTQPKLLFTATDFNSYVTVHIADGAPQRNNGRMKSSGEGHHHHHH”, “not soluble”.

Turning to “MSLKKLTVAALAVTTLLSGSAFAHEAGEFFMRAGSATVRPTEGAGGTLGSLGGFSVTNNTQLGLTFTYMATDNIGVELLAATPFRHKIGTRATGDIATVHHLPPTLMAQWYFGDASSKFRPYVGAGINYTTFFDNGFNDHGKEAGLSDLSLKDSWGAAGQVGVDYLINRDWLVNMSVWYMDIDTTANYKLGGAQQHDSVRLDPWVFMFSAGYRFEGGSHHHHHH”, the “soluble on expression in E. coli” value is reported as “soluble”.
